Three molecules from patent US20170190787A1 (INSERM INSTITUT NATIONAL DE LA SANT ET DE LA RECHERCHE M …, published 2017) can be followed below.

The target of experiment [1] is T1, EGFR fused to SNAP-tag, expressed on transfected HEK293T cells (UniProt P00533 25-1210, terbium cryptate donor fluorochrome (SNAP-Tb) covalently on the SNAP-tag).
T1 construct: whole, on cells; also called EGFR-ST; ErbB1-ST; not shown: SNAP-tag and FLAG tag (Cisbio plasmid)
The experiment can be described thus: time resolved fluorescence (HTRF) on EGFR-ST transfected HEK293T cells; apparent affinity.

Experiment [2] has as its target T1, EGFR fused to SNAP-tag, expressed on …. The experiment can be described thus: HTRF on living cells; D4E in the presence of a large amount of monovalent D10 blocking the D10 epitope. On the technique in general: In TR-FRET formats the signal depends on donor and acceptor labels being close together.
The target is the same in experiment [3]. The experiment can be described thus: HTRF on living cells; D4E in the presence of a large amount of monovalent E10 blocking the E10 epitope.

B1: biparatopic single domain antibody D2E (D10 - 2x(G4S) linker - E10) (bispecific antibody)
chain: EVQLQESGGGLVQAGGSLRLSCAVSISRTIFSLYAMEWYRQPPGKQRDLVARIYRSGDTNYADSVKGRFTISRDNAKNTVYLQMNSLKPEDTGVYYCNSPAQDWPWGQGTQVTVSSAAAGGGGSGGGGSMAQVQLQESGGGLAQAGGSLRLSCAASGRTLSSYDMGWFRQAPGKEREFVTAINWGDLSTYYADSVKGRFTISRDNAKNTVYLQMNSLKPEDTAVYYCAARLRYTVSDPIFSRPDRYNYWGQGTQVTVSSAAAEQKLISEEDLNGAAHHHHHHGS
notes: also called bisdAb D2E
Regarding B1, the Kd in experiment [1] was found to be 6 nM.

B2: biparatopic single domain antibody D4E (D10 - 4x(G4S) linker - E10) (bispecific antibody)
chain: EVQLQESGGGLVQAGGSLRLSCAVSISRTIFSLYAMEWYRQPPGKQRDLVARIYRSGDTNYADSVKGRFTISRDNAKNTVYLQMNSLKPEDTGVYYCNSPAQDWPWGQGTQVTVSSAAAGGGGSGGGGSGGGGSGGGGSMAQVQLQESGGGLAQAGGSLRLSCAASGRTLSSYDMGWFRQAPGKEREFVTAINWGDLSTYYADSVKGRFTISRDNAKNTVYLQMNSLKPEDTAVYYCAARLRYTVSDPIFSRPDRYNYWGQGTQVTVSSAAAEQKLISEEDLNGAAHHHHHHGS
notes: also called bisdAb D4E
For B2, the Kd in experiment [1] was found to be 6 nM; in experiment [2], 100 nM; in experiment [3], 22 nM.

B3: biparatopic single domain antibody D6E (D10 - 6x(G4S) linker - E10) (bispecific antibody)
chain: EVQLQESGGGLVQAGGSLRLSCAVSISRTIFSLYAMEWYRQPPGKQRDLVARIYRSGDTNYADSVKGRFTISRDNAKNTVYLQMNSLKPEDTGVYYCNSPAQDWPWGQGTQVTVSSAAAGGGGSGGGGSGGGGSGGGGSGGGGSGGGGSMAQVQLQESGGGLAQAGGSLRLSCAASGRTLSSYDMGWFRQAPGKEREFVTAINWGDLSTYYADSVKGRFTISRDNAKNTVYLQMNSLKPEDTAVYYCAARLRYTVSDPIFSRPDRYNYWGQGTQVTVSSAAAEQKLISEEDLNGAAHHHHHHGS
notes: also called bisdAb D6E
With B3, the Kd in experiment [1] amounted to 6 nM.
